Measurements as given in article PMC6155056 (Science Advances, 2018).

Legend:
Assay in all cases: cryo-EM structure
[1] = biological target: T1, CVA10 A-particle (strain CVA10-FJ-01) (Coxsackievirus A10, strain CVA10-FJ-01 …, strain)
T1 chain 1: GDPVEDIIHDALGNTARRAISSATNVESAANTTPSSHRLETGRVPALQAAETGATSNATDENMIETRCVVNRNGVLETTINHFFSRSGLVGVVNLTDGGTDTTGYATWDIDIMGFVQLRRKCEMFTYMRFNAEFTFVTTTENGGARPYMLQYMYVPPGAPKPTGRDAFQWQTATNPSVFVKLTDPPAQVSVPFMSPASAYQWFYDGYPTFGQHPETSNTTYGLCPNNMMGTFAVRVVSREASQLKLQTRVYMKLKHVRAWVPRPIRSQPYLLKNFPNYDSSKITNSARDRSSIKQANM
T1 chain 2: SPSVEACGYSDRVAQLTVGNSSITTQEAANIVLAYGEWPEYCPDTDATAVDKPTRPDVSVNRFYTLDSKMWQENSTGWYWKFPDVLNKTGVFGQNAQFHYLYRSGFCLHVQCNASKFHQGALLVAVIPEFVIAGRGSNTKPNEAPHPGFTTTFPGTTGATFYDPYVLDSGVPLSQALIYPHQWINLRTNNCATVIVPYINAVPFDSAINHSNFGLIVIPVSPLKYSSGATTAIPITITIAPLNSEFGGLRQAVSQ
T1 chain 3: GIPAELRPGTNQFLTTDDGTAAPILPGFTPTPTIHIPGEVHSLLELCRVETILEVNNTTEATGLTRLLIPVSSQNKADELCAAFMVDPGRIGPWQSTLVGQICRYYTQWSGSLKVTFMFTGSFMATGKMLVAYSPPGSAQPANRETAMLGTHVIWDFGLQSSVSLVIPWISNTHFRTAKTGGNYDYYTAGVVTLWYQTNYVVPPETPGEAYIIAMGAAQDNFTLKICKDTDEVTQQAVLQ

[2] = biological target: T2, CVA10 capsid protein VP1 (strain CVA10-FJ-01) (Coxsackievirus A10, strain CVA10-FJ-01 …, strain)
T2 chain: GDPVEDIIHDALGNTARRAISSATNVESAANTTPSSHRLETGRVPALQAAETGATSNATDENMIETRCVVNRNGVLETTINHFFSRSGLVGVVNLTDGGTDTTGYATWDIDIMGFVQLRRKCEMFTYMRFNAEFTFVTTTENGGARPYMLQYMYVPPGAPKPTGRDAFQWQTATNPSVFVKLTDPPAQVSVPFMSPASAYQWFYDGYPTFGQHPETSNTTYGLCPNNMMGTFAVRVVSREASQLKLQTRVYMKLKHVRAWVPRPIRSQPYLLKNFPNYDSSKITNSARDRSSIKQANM

[3] = biological target: T3, CVA10 mature virion (strain CVA10-FJ-01) (Coxsackievirus A10, strain CVA10-FJ-01 …, strain)
T3 chain 1: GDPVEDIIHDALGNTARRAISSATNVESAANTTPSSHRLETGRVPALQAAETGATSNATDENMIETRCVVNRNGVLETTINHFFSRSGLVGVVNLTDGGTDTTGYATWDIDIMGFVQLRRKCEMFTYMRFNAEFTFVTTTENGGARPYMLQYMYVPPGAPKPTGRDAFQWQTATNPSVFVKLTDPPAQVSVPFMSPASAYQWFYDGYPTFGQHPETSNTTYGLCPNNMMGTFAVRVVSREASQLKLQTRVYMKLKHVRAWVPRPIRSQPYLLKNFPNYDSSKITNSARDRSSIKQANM
T3 chain 2: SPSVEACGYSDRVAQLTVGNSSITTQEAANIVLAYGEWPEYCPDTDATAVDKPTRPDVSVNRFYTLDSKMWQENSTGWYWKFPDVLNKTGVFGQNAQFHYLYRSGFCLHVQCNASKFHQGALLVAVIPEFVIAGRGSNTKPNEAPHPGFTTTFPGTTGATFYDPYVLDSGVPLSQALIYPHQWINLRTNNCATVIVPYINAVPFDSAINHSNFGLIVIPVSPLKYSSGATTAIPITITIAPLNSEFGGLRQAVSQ
T3 chain 3: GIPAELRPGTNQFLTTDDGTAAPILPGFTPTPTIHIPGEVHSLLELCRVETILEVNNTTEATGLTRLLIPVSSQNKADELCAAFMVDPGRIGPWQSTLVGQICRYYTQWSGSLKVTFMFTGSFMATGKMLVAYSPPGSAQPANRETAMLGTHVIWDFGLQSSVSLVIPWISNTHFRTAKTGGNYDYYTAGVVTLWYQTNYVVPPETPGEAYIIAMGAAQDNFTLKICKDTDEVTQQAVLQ
T3 chain 4: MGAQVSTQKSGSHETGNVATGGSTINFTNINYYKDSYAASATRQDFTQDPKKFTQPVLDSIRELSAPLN

[4] = biological target: T4, CVA10 capsid protein VP2 (strain CVA10-FJ-01) (Coxsackievirus A10, strain CVA10-FJ-01 …, strain)
T4 chain: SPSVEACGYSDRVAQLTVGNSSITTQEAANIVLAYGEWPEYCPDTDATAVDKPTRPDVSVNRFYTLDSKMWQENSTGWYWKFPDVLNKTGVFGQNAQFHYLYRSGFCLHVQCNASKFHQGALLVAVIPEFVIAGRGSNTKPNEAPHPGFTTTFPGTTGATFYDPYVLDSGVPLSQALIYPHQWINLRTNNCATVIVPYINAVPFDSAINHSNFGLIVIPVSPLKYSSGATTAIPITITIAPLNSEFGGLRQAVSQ

[5] = biological target: T5, CVA10 capsid protein VP3 (strain CVA10-FJ-01) (Coxsackievirus A10, strain CVA10-FJ-01 …, strain)
T5 chain: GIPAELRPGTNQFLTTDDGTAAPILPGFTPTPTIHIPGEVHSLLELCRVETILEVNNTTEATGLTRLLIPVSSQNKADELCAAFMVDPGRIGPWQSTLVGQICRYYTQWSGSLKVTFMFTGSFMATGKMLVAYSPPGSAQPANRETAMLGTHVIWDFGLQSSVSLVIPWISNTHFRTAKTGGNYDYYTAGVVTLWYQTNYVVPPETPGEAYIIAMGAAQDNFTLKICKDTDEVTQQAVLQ

[6] = biological target: T6, CVA10 procapsid (strain CVA10-FJ-01) (Coxsackievirus A10, strain CVA10-FJ-01 …, strain)
T6 chain 1: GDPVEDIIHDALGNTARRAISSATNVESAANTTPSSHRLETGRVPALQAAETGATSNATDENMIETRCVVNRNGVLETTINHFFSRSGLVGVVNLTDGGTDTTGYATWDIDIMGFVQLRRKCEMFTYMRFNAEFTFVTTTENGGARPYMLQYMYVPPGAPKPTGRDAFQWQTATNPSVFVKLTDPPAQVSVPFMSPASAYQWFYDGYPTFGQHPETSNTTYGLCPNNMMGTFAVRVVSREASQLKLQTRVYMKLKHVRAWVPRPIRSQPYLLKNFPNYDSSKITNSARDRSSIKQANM
T6 chain 2: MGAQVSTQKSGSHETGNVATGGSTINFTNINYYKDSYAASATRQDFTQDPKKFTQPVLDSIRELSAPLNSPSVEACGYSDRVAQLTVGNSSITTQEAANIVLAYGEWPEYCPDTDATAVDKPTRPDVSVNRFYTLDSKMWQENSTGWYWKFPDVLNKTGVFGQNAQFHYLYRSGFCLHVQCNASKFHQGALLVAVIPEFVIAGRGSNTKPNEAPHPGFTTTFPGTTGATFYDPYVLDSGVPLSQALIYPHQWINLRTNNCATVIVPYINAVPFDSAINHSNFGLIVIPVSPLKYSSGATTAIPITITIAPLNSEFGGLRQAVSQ
T6 chain 3: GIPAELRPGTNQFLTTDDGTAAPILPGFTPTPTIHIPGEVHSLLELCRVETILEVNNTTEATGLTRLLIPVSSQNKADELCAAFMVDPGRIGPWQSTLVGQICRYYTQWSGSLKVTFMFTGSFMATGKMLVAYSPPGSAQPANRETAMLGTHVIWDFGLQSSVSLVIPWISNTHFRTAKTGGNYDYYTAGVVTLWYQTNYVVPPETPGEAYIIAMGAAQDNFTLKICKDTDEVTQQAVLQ

B1: Fab 2G8 (Fab, V domains shown)
VH: EVQLQQSGPDLVKTGASVRVSCRASGYSFTSYYIHWVRLNHGKSLEWIGYINCYNGDITYNQKFKGKASFTLDTSSSTAYMEFNRLTSEDSAVYYCTRERYGTPHYHFDVWGAGP
VL: DVLMTQTPLSLPVSLGHQASISCRSSQSIVHSNGNTYLEWYLQKPGQSPKLLIYTVSNRFSGVPDRFSGSGSGTDFTLRITSVEAEDLGVYYCFQGSHIPYTFGGGTKLEIK
[1]
  stoichiometry N: 60 copies per particle
[2]
  binding result: binds
[3]
  stoichiometry N: 60 copies per particle
[4]
  binding result: binds
[5]
  binding result: binds
[6]
  stoichiometry N: 60 copies per particle
